Test results reported in US8344120B2, “Nucleic acid molecules encoding rage fusion proteins” (TransTech Pharma, Inc., priority 2006, dated 2013).
“And” between values parts separate entries of the source, which are not always exact repeats. Equal entries are not always repeated. Where two headings read alike, the source gives them in different places.

Tests used:
[1] = cited from earlier work
amyloid-beta (Abeta) = target: T1, amyloid-beta (Abeta) (Homo sapiens, UniProt P05067); assay: In vitro ligand binding ELISA, immobilized amyloid-beta; settings: ligand 5 micrograms per well; fusion protein at increasing dilutions, 37° C. one hour
T1 construct: Amyloid Beta (1-40) from Biosource; purchased Biosource
Description: (§1) For example, the RAGE fusion protein may be used in a binding assay to identify potential RAGE ligands. In one example embodiment of such a binding assay, a known RAGE ligand may coated onto a solid substrate (e.g., Maxisorb plates) at a concentration of about 5 micrograms per well, where each well contains a total volume of about 100 microliters (4). The plates may be incubated at 4° C. overnight to allow the ligand to absorb or bind to the substrate. Alternatively, shorter incubation periods at higher temperature (e.g., room temperature) may be used. […] The RAGE fusion protein bound to the immobilized ligand may be detected in a variety of ways. […] The bound complex may be detected by adding the alkaline phosphatase substrate, para-nitrophenylphosphate (PNPP), and measuring conversion of PNPP to para-nitrophenol (PNP) as an increase in absorbance at 405 nm. […] In the absence of ligand (i.e., coating with only BSA) there was no increase in absorbance. […] Binding was detected by the addition of an immunodetection complex containing a monoclonal mouse anti-human IgG1 diluted 1:11,000 to a final assay concentration (FAC) of 21 ng/100 μL, a biotinylated goat anti-mouse IgG diluted 1:500, to a FAC of […], and an avidin-linked alkaline phosphatase. […]

S100b (S100) = target: T2, S100b (S100) (Homo sapiens, UniProt P04271); assay: In vitro ligand binding ELISA, immobilized S100b; settings: ligand 5 micrograms per well; fusion protein at increasing dilutions, 37° C. one hour
T2 sequence (P04271 1-92): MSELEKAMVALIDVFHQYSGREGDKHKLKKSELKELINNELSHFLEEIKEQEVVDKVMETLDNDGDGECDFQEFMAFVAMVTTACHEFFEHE
Description: as §1

amphoterin (Ampho) = target: T3, amphoterin (Ampho) (Homo sapiens, UniProt P09429); assay: In vitro ligand binding ELISA, immobilized amphoterin; settings: ligand 5 micrograms per well; fusion protein at increasing dilutions, 37° C. one hour
T3 sequence (P09429 1-215): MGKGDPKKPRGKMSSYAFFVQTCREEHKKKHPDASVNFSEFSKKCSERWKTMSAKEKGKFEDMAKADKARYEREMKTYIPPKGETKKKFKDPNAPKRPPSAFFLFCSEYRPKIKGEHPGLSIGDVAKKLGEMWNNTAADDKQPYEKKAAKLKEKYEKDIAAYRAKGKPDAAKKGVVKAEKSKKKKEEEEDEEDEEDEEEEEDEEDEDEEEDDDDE
Description: as §1

[2] = system: recurrent diabetes in syngeneic NOD transplant model; assay: Syngeneic islet transplantation in NOD mice; format: in vivo
Excerpt: Spontaneous autoimmune non-obese diabetic mice (NOD/LtJ) (12-25 weeks old) served as recipients for islet cells, while young pre-diabetic NOD/LtJ mice (6-7 weeks old) served as donors in syngeneic islet transplantation. Islets for transplantation were isolated as described above in Section A (Allogeneic Islet Transplantation). Diabetic NOD/LtJ mice received islet grafts within 2 days of the diagnosis of diabetes. 500-600 freshly isolated islets (approximately 550 islet equivalents) from donor mice were picked up with an infusion set and transplanted into the subcapular space of the right kidney. Test compounds were administered as soon as the islets were transplanted and continued for approximately 8 weeks. […] Islet graft function was monitored by serial blood glucose measurements daily for the first 2 weeks after islet transplantation, followed by every other day thereafter. Reversal of diabetes was defined as blood glucose less than 200 mg/dl on two consecutive measurements. Percentage graft loss was determined when blood glucose exceeded 250 mg/dl on two consecutive measurements.

[3] = normal and diabetic rats; cited from earlier work
mouse model of AD = assay: APP transgenic mouse model of AD; format: in vivo, mice; settings: treated for 3 months, qod i.p.; versus vehicle and human IgG1
Description: Experiments were performed to evaluate whether TTP-4000 could affect amyloid formation and cognitive dysfunction in a mouse model of AD. The experiments utilized transgenic mice expressing the human Swedish mutant amyloid precursor protein (APP) under the control of the PDGF-B chain promoter. Over time, these mice generate high levels of the RAGE ligand, amyloid beta (Aβ).
The APP mice (male) used in this experiment were designed by microinjection of the human APP gene (with the Swedish and London mutations) into mouse eggs under the control of the platelet-derived growth factor B (PDGF-B) chain gene promoter. The mice were generated on a C57BL/6 background and were developed by Molecular Therapeutics Inc. Animals were fed ad libitum and maintained by brother sister mating. The mice generated from this construct develop amyloid deposits starting at 6 months of age. Animals were aged for 6 months and then maintained for 90 days and sacrificed for amyloid quantification.
APP transgenic mice were administered vehicle or TTP4000 every other day [qod (i.p.)] for 90 days starting at 6 months of age. At the end of the experiment, animals were sacrificed and examined for Aβ plaque burden in the brain (i.e., plaque number). A 6-month control APP group was used to determine the baseline of amyloid deposits. In addition, at the end of the study, the animals were subjected to behavioral (Morris water maze) analysis. The investigators were blinded to the study compounds. Samples were given to the mice at 0.25 ml/mouse/every other day.
For histological examination, the animals were anesthetized with an intraperitoneal injection (IP) of sodium pentobarbital (50 mg/kg). The animals were transcardially perfused with 4° C., phosphate-buffered saline (PBS) followed by 4% paraformaldehyde. The brains were removed and placed in 4% paraformaldehyde over night. The brains were processed to paraffin and embedded. Ten serial 30-μm thick sections through the brain were obtained. Sections were subjected to primary antibody overnight at 4° C. (Aβ peptide antibody) in order to detect the amyloid deposits in the brain of the transgenic animals (Guo et al., J. Neurosci., 22:5900-5909 (2002)). Sections were washed in Tris-buffered saline (TBS) and secondary antibody was added and incubated for 1 hour at room temperature. After washing, the sections were incubated as instructed in the Vector ABC Elite kit (Vector Laboratories) and stained with […] (DAB). The reactions were stopped in water and cover-slipped after treatment with xylene. The amyloid area in each section was determined with a computer-assisted image analysis system, consisting of a Power Macintosh computer equipped with a Quick Capture frame grabber card, Hitachi CCD camera mounted on an Olympus microscope and camera stand. NIH Image Analysis Software, v. 1.55 was used. The images were captured and the total area of amyloid was determined over the ten sections. A single operator blinded to treatment status performed all measurements. Summing the amyloid volumes of the sections and dividing by the total number of sections was done to calculate the amyloid volume.
For quantitative analysis, an enzyme-linked immunosorbent assay (ELISA) was used to measure the levels of human total Aβ, Aβtotal and Aβ1-42 in the brains of APP transgenic mice (Biosource International, Camarillo, Calif.). Aβtotal and Aβ1-42 were extracted from mouse brains by guanidine hydrochloride and quantified as described by the manufacturer. […]

[4] = 300 ug LD + 100 ug qod ip, syngeneic islets in NOD mice

T1 sequence (P05067 672-711 limits assumed): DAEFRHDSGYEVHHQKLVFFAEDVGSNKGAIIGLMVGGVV

human sRAGE: human soluble RAGE (V, C1 and C2 domains)
half-life ([1]; assessed by retention of immunoreactivity sRAGE): less than 2 hours
half-life in plasma [1]: about 2 hours

sRAGE: soluble RAGE: the RAGE protein that does not include the transmembrane region or the cytoplasmic tail; species not stated at the place [reference compound]
half-life in plasma [1]: only a few hours

B1: TTP-3000: three domain RAGE fusion protein: human RAGE N-terminal sequence (to position 136) linked to human IgG Fc (γ1) without hinge; SEQ ID NO: 35-37, 57 (protein)
chain: QNITARIGEPLVLKCKGAPKKPPQRLEWKLNTGRTEAWKVLSPQGGGPWDSVARVLPNGSLFLPAVGIQDEGIFRCQAMNRNGKETKSNYRVRVYQIPGKPEIVDSASELTAGPSVFLFPPKPKDTLMISRTPEVTCVVVDVSHEDPEVKFNWYVDGVEVHNAKTKPREEQYNSTYRVVSVLTVLHQDWLNGKEYKCKVSNKALPAPIEKTISKAKGQPREPQVYTLPPSRDELTKNQVSLTCLVKGFYPSDIAVEWESNGQPENNYKTTPPVLDSDGSFFLYSKLTVDKSRWQQGNVFSCSVMHEALHNHYTQKSLSLSPGK
modifications: non-natural residues
binding to immobilized amyloid-beta (increase in absorbance at 405 nm) (amyloid-beta (Abeta)): specifically interact
binding to immobilized S100b (increase in absorbance at 405 nm) (S100b (S100)): specifically interact
binding to immobilized amphoterin (increase in absorbance at 405 nm) (amphoterin (Ampho)): specifically interact
day of graft loss for each animal [2, 4]: 42 days and 41 days and 34 days and 32 days and 30 days and 44 days and 46 days
day of graft loss, Mean [2, 4]: 38.43 days
time before detection of graft failure, in words ([2]; versus animals not treated at all): increase in the time before detection of graft failure

B2: rodent sRAGE: rodent soluble RAGE (protein, UniProt Q62151 23-340, looked up)
extracellular domain: GQNITARIGEPLVLSCKGAPKKPPQQLEWKLNTGRTEAWKVLSPQGGPWDSVARILPNGSLLLPATGIVDEGTFRCRATNRRGKEVKSNYRVRVYQIPGKPEIVDPASELTASVPNKVGTCVSEGSYPAGTLSWHLDGKLLIPDGKETLVKEETRRHPETGLFTLRSELTVIPTQGGTHPTFSCSFSLGLPRRRPLNTAPIQLRVREPGPPEGIQLLVEPEGGIVAPGGTVTLTCAISAQPPPQVHWIKDGAPLPLAPSPVLLLPEVGHEDEGTYSCVATHPSHGPQESPPVSIRVTETGDEGPAEGSVGESGLGTLA
modifications: extracellular domain
notes: rodent soluble RAGE
half-life [3]: approximately 20 hours

B3: mouse sRAGE: mouse soluble RAGE used as comparator in the AD mouse model (protein, UniProt Q62151 23-340, looked up)
extracellular domain: B2 extracellular domain
modifications: extracellular domain
notes: mouse soluble RAGE used as comparator in the AD mouse model
Aβ plaques in the brain (mouse model of AD): fewer Aβ plaques
cognitive dysfunction (Morris water maze) (mouse model of AD): less cognitive dysfunction
